According to the DeepSol protein solubility set:

Assay: soluble on expression in E. coli; label from the status in PepcDB or PDB records

Soluble on expression in E. coli, not soluble:
MGSDKIHHHHHHMQNHVISLASAAERRAHITDTFGVRGIPFQFFDALMPSERLEQAMAELVPGLSAHPYLSGVEKACFMSHAVLWKQALDEGLPYIAVFEDDVLLGEGAEKFLAEDAWLQERFDPDSAFIVRLETMFMHVLTSPSGVADYCGRAFPLLESEHWGTAGYIISRKAMWFFLDRFAALPSEGLHPVDWMMFGNPDDRERMPVCQLNPALCAQELHYAKFHDQNSALGSLIEHDRCLNSKQQRRDSPANTFKHRLIRALTKISREREKRRQRREQLIGKIIVPFQ
MGSDKIHHHHHHMQNPFTLTFGRSPLESVDRPVQINEIIENFTADTINQQMFIITGVRGSGKTVMMTEISHRLRENDDWVVIELNPATELLPAMLSKLNSDNICAGLIKSAKLDLSFFGFGVSIEGTQPITDAETAIIKILERLKKSGKRLLITIDEMTNSEYMKVFAGAFQIFVRQELPVFLLGTGLYENIEELQNEKSLTFLYRAPKIQLKPLNNAAIINKYKTIFNISPEKAAQMAGLTKGYPFAFQVLGYLTWNNGGDYNGILGEYEQYLSEFVYDKIWSELSQKDRMVAKGIADVQSGKIKEIRDAIGMETNEFNPYRKRLIKKGIVSGEIRGYVYFTLPLFEEYVIENY
MGSDKIHHHHHHMQQEQRILFKNDTGDYAAVAAGEESVLQAGLRQSVPLNYHCASGSCGSCKARLIQGALKVHTGTDFIQVSHTADQVCEYPEVHLCQSHAVSDCVFEALYDKNVPPDLVTPKHYAASLSDVRPLGSGLYRLLVDFDDSIRFLPGQYVMLATEAGGRARAYSVANFAQDSRQLEFILSCNPNGAMSPQLCDINNIGMQLQGYGPLGKAYIRPSKDKEIVMLVGGSGVSVALSTLEWAISSHYIDDRHLTIFWGVRDTSPIDLIGVLNRYAAVHSNLRVAVCSDISPSVQDRVRFPHIEFFTGYPADHIVNDASISWEGKEVYISGPPPMVDHTVRQLMINTEIDALDIKCDSFV
MGSDKIHHHHHHMQREKVDVLVIGAGPAGTVAASLVNKSGFKVKIVEKQKFPRFVIGESLLPRCMEHLDEAGFLDAVKAQGFQQKFGAKFVRGKEIADFNFSDQFSNGWNWTWQVPRGNFDKTLADEAARQGVDVEYEVGVTDIKFFGTDSVTTIEDINGNKREIEARFIIDASGYGRVIPRMFGLDKPSGFESRRTLFTHIKDVKRPVAAEMEGNRITAVVHKPKVWIWVIPFSNGNTSVGFVGEPSYFYYYTGTPEERMRAMIANEGHIAERFKSEEFLFEPRTIEGYAISASKLYGDGFVLTGNATEFLDPIFSSGATFAMESGSKGGKLAVQFLKGEEVNWEKDFVEHMMQGIDTFRSFVTGWYDGTLHAVFFAKNPDPDHKRMICSVLAGYVWDKNNPFVKKHNTILKTLAKVIQMGEEA
MGSDKIHHHHHHMQSRMHPRYYLSLEIFEREQKKIFRKAWLFAGLKTLLSEHNAFITRRIAGIPIVIQNFHGELRAFENVCLHRNALLQTEAVGKRPLVCAYHAWRYDAEGRVDHIPECDAVYRFSAEEKQGLKLRRFALHAVGNVLFINLDTDPLPFEEQFTPAFIDLLESSSNTYDTEVMVTTWHGKFNWKLAYENLRDANHPRFVHPKSLAKTVKFTPTVDEALFRESGLQLTDTSPSALRREMRRFSHAGADAPIPDLQHFGWHELVERWGDQDSYYNWLAFPNLHIASANGGFSFTLEHHIPIAPDRTDLEIYWFTARKKQAYAFSHQVLLAQMHGSKLVVGEDVEIMEQVQAALHADAPLPNQGAYESSNRLVERWYTTLMDGDHDI
MGSDKIHHHHHHMQTHQELYLPRMGCGTWAWGNQLLWGYNESMDEQLQAVFNLCVSNGVTLFDTGDSYGTGRLNGRSELLLGQFAQEYQGVNQENICIATKLAAYPWRWTRQSMINACKSSAQRLGRNVDLVQMHWSTANYAPWQESGLLDGLADLYEQGLVKGVGLSNYGTKRLQRVHQKFAERGVPIKTLQVQYSLLSTYPVTELGLKDVCDQLGIKLIAYSPLALGILTGKYSEKGPFPRGVRGLLFRQLLPGVRSLLQCLQDVAQSRNKTMSQVALNWCIAKGTIPIPGAKSVKQAQENIGALGWQLDSGEIAELDKAAASSDKKMVQNIFQTK
MGSDKIHHHHHHMQVGTIFGHKNSEGTLVSSAAIIPYESKLASIGMVIVSSQCRGLGLGREVTEACIKATLEDTTLMLIATDEGRPLYERLGFAAVERIHKHLCDDYKEPESIPSMDVTIEELRSNDFRQLVQLDEGAMGVRRSRFLKQRTTQANQSLVAKDKAGNVIGYGLSILGPIHLIIGPIVAPNHEIACLILDRLACQHKGKLRMDVPSGHHTFLQHLQRRGFTEVNTPPVMAKQSAYEPRRNGTLFAIAAQVFG
MGSDKIHHHHHHMRALLCGYYGEGNGGDEALLAALLQLLPPTVEPLVLSGNPAATRTCYGVEACDRRSGAAVWQALRRSDLFIFGGGSLIQDVTSWTSPLYYCGLMGLAQQLGLKTIAWAQGIGPLQRKRTRWLARRTFQHCDRITVRDRGSAALLKEWGISVAIAPDPVWALEPLPLDQPLSNQEAIAVCLRPHPELTPERSDRLKAALTTLQSQTQAPILLIPFHHQQDRPLAAQWASEIPQAEVLDWQHPRQLLSYFQSVRLTIAMRFHGLVMAAAAGNRCFGLSYDPKVRRFLDALEQPGWDLPEIPDSAEAIAAAWLESWQAEPIHAAAIADLRQQVDVHRQALVF
MGSDKIHHHHHHMRASSHLPQLHGRLDLTFERRRGTTRLVASEQTPPLNVSRVLRTEEVDLATVYLVETSGGVVSGDSQTIAIYVGEGARVELIPQSATKVYPSRKQGESSTQQVWLRVDEGAAAFWKPESIIPFRKASFLQSTRFHLHSSSTFFYGDMLTPGRVHHNERFQYEQVDSLVEIYLDETLVVHDRVHLQPKDQLQTIGRLDGYSYYGAVWMHAPILKGAHLEQWMENGGQNDRFAYTCVAEGLIHVRWLSESSWRLRAALNDLYTAFRTFALKGE
MGSDKIHHHHHHMREGSIVKLESLINQKYSNLNQTEKEILAFIIENRDFVRKASLSEVAEKSLFSKSAIFRCCKKIGLTGFSQLRYVLTDEKDSEQDSLISVDYLAQTVKSMLWTVNQFKSTNADDIYATLAAAGTIYIYSTGWQQQIMAQQLQRDLYLIGKFAFVFPTGHDEMQLSSTKIKPGDAVIVISYKGMNATIVQLVNNLKLNGVRIVSFTSFRQNRLAQAANFNLYYDIINKTVGIERKTERFFANLTLLIDIFSMGFANYLVAKEERDHEHGEYGQRKSK
MGSDKIHHHHHHMRGKMIDDPIDLLRQYSRKLVRELGMLQLNKLAAKEQPSYWHTLIEINKEPNITISKLSQLLLVSLPTLSRIVNSLINDELVTVNEGLDKRERFLRVTDKGKEKVNYIDEYSNTKIKRAFHYLTDEEREQVITAIGKYAQALEQSRLIRDQIRILRLSTSRALRKQIVNMIENIQVNEFHLSITPEINASILKAEEEYCYYSSCNFWYAVDEQGGIIGSIGLKKLNHTEGEVKKFFIAPKYRGLGLAQKLMLTLVRNAMKHGFKKLFLGTVAQLNAARRFYEKNGFVLVNKNSLPKEFELCPLDTHFYYCETDKLDKSLRELI
MGSDKIHHHHHHMRHIAHYCVAHPAGSMVVPGTRKKRELLPSAAPWRLSGVFVSLDEIRKDWTTLGAAAPLWAVCVDPAKRHGGWDDDEFLASGRAEIDAAMARLAELGIAHGRERALDFGCGAGRLSNALAAYFDRVVGVDISAPMLAEARRLDRSGGRIDFLLNDAPDLKIFPDASFDLVYTDLVLQHLPPPLARGYLAEFARVLRPGGALVAGMPATERRTVKGLVFRYAPHRVIRFIQRVLLGYPAPMRMHTMPPEQMRELLASHGVRVVSAEEYAGDDHGTHWVHMRYYARKDPGAAL
MGSDKIHHHHHHMRIAPLPPLQCLVAFESAVRHASFTKAAAELHLTQSAISRQIAQLEDFLGRSLFVREHRALRLTIAGEGYAKHVQWLLASCSEATLDVMKRYGDMELTIACSSGVAVLWLTPRLGAFRAAHPNVRIRMIVRDGLASLSPAEFDVGLYYIRQRAEPHFTARRLFDEDVYPVCSPGYLAGRVLTPAGLVHETLLVQEDGQRQWMSWSEWFRLNHVQMPASPQAVVVNHYPQLVQMAILGQGVVLGWRHMIDACLSEGLLVRATQASASHGGGYYVVSPNDRSQNQAARLFTRWVFEQAEAQMGRAAS
MGSDKIHHHHHHMRIGFLSHAGASIYHFRMPIIKALKDRKDEVFVIVPQDEYTQKLRDLGLKVIVYEFSRASLNPFVVLKNFFYLAKVLKNLNLDFIQSAAHKSNTFGILAAKWAKIPYRFALVEGLGSFYIDQGFKANLVRFVINSLYKLSFKFAHQFIFVNESNAEFMRNLGLKENKICVIKSVGINLKKFFPIYVESEKKELFWKNLNIDKKPIVLMIARALWHKGVKEFYESATMLKDKANFVLVGGRDENPSCASLEFLNSGAVHYLGARSDIVELLQNCDIFVLPSYKEGFPVSVLEAKACGKAIVVSDCEGCVEAISNAYDGLWAKTKNAKDLSEKISLLLEDEKLRLNLAKNAAQDALQYDENIIAQRYLKLYDRVIKNV
MGSDKIHHHHHHMRISLSTGTLFTFPLGKVMAIARDAGFDGVELIVNQDFQKVNCRTLIRELAEILPIHSMHAPFMPLDGWGSSIDSLKRCVELSADCGVQLVNFHPPSWMGFELGFWRWLYRVMDFQKEVGQGGVIVTLENMPWVGKRVRMNPHILSSTTKFIDFIQERNLFMTFDTTHMGSGKANFINDFYLCYNSGRIRNIHFSDYGHGREHLLPGHGILPLTRFLNHLRSTGYNDTLTLELSPEEFPRDERIIVESLREILSYLRKETEHPIP
MGSDKIHHHHHHMRIVVSGGGTGGHIYPALAMIREIERRTPCEVLYIGTENGLEADIVRRAGIPFESIEISGIRRSLSFENVKTGFRFLKSVVRVRKLLRDFQPDIVVGTGGFVCGPVLYTAAKMGYKTLVHEQNSLPGITNKFLARYVDRVALSFKGSGHHFGKNKGKTILIGNPRASEVAMLQIDPVEEKRKYGFEQDRPLIVVYGGSRGAPAINKAVVDMIPKLTETDWSLLFVTGQVHYEDIQAQLGTLPDRIQLRPFIYDLPLILKASQLVISRSGASTLAELTTLGLPSILIPSPYVTENHQEVNASSLVETGASLLIRESELTGDRLFDACTKAIADQADMSKASLALGMPNAASDLVDELLRLIQRKN
MGSDKIHHHHHHMRIVYRASETFKKVHASTALVKAIRGPIGSGKSVGCVLEMFRVAQQQEPNAQGVRKTRWACVRNTYPELKGTVIKTFQTWIPEQICPIKYDSPITGKMNINHPDGKTRIEAEFLFLSMDKPKDVKKLMSLELTGIWINEAQFLPVSLVTEAVTRTGRYPEKRVEEGFMGATWNGMIMDTNSPDDDHWWYQFEQGIDEETEQPLKPKGWEFFVQPGALIDITGMPLATLSDEIKRNIEQGHYDDYLGHRFVANPIAENVINHKKGHGYWFDNIQGQTLNWIKSRVCNEFATVQQGKPVFGDHFNKELHVSTEKLVPVKGWETFIGLDFGLTPAAIIGQIAPIGQLRIVDEIVATGMGIERFITEQLSPLLRSRYAECAIQIIGDPAGVQRAQTDERTCFQLLEEYGFNARPAESNNTTARLEAVRWWLSRLVGKGQPAMLISPHCKTLIKGYETGYAYRQLNVSGEEKYTETPDKNRYSHPHDANQYLCLGAMPSLFKEQVINIKTHQPLSNITGY
